Values quoted from earlier work as cited in article PMC4927088.

Molecular target: LPL (UniProt P11151)
UniProt P11151, sequence (P11151 29-478): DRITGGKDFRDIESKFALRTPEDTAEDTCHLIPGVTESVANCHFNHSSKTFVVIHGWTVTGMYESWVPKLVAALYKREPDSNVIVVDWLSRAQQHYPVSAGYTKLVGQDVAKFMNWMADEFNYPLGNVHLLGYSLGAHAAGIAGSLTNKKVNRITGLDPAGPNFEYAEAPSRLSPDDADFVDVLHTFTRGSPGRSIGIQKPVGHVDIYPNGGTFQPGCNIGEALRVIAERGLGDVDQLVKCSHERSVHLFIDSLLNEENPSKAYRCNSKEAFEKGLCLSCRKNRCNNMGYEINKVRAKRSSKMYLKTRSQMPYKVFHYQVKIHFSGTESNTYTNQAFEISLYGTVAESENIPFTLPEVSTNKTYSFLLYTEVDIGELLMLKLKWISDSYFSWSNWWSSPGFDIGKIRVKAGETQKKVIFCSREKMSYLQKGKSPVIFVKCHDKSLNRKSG

Kd: 25 nM
Substance: GPIHBP1 (from UniProt Q8IV16)
